Data published in article PMC4159138, “Fission Yeast Pxd1 Promotes Proper DNA Repair by Activating Rad16^XPF and Inhibiting Dna2” (PLoS Biology, 2014).

B1: 5' overhang DNA (oligo461/oligo463) (dsDNA)
DNA 1: CACGCTACCGAATTCTGACTTGCTAGGACATCTTTGCCCACGTTGACCC
DNA 2: GGGTCAACGTGGGCAAAG
B2: Cdc24-YFH co-overexpressed with Dna2 and purified from fission yeast (natural protein, S. pombe, UniProt O75004 1-501, looked up)
chain: MDFPGLIKKIKEDLENRLVEKSKQPAFTDYWLINKTISLLKEYPSGFSYPILINEIELACSERNKLDNVFSSLEWLTKSDAVIYLEDQFHFHCYDYYYTPIPSLKLKDSEENTCEMILHSSFYLLFHEPFNILKGSTLRFSQSRIHQKWYLRKQIRFLPTTSFVPVLQYAASKSFVKSMVESTEHEFFQIRDITISKSDQGVKRITVELGRIISLDKKGAFLIDNNTNFIHFSGTYHDFPKLLDKQQYLLIPFWSTVWEGSTNWQDGMIGILVILSENDFEEKKCDSWQVGRLAAVNSNFLVLDNNGQRVKILYSNSQKHYFKDTYIGDLLCISPINHSSDNLSDYSCVSDTTTEILSNLENPLSSNFLRNDLCKFSNLFSGVSGHLKIQPLTLVITGFVANLTRQSDLNTSLVLPEVNPLTAKMEVIDCLRNSFWAALRPNCVSYFASMISGFKELFQKEMEFPIYLDLKSYKLGFHWCDIYVDSEHNCHIQKINSLPCE
notes: Cdc24, S. pombe; The Cdc24 chain of m29, written alone for the cross-links; source: fission yeast pxd1Δ cells, co-overexpressed with Dna2, purified (anti-FLAG beads)

How the values were obtained:
[1] = molecular target: T1, RPA (UniProt Q92372;Q92373;Q92374 1-609;1-279;1-104); assay: EMSA; 1 mM EDTA; 50 ng RPA; 50 mM Tris-HCl pH 7.5, 1 mM EDTA, 1 mM DTT, 0.1 mg/ml BSA, 50 mM NaCl, 5% glycerol, 15 fmol DNA in 10 µl, room temperature 30 min; 5% PAGE in 1x TBE; conditions: protein: recombinant; tags: 6xHis-GST on Rpa1 in plasmid pDB2129; copies: 1;1;1; label: 5' 32P on oligo461; 18 bp duplex with 5' overhang 31 nt on oligo461
T1 sequence 1: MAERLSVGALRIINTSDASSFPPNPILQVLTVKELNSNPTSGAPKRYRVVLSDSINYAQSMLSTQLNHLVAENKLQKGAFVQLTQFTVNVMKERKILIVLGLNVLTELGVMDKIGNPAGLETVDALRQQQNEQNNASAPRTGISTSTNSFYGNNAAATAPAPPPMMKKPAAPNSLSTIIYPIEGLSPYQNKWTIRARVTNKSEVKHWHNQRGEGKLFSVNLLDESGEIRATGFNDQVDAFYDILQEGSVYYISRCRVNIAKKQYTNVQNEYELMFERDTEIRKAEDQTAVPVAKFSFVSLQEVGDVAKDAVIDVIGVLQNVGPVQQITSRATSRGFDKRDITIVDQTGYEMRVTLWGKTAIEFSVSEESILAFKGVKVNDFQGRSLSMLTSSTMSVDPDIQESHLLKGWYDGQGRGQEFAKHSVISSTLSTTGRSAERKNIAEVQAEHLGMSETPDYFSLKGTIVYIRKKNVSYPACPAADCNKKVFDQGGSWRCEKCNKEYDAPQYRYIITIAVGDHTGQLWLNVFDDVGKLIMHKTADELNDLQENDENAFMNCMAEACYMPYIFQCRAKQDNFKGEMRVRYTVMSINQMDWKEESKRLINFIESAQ
T1 sequence 2: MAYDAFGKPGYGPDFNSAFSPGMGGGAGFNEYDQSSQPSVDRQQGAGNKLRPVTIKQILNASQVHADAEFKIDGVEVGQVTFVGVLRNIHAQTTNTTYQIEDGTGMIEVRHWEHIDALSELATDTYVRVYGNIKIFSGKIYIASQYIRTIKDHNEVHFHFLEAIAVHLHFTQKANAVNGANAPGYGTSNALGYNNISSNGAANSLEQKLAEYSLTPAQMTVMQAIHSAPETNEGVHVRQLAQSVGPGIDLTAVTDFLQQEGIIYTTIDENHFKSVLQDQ
T1 sequence 3: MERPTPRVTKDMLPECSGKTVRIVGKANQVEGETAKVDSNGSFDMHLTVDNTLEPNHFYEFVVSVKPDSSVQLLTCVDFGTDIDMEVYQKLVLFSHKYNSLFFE

[2] = molecular target: T2, Dna2 co-overexpressed with Cdc24-YFH and purified from fission yeast (S. pombe, UniProt Q9URU2 1-1397); assay: cross-linking; CXMS: Dna2-Cdc24-Pxd1(227–351) complex formed on anti-FLAG beads and eluted with 3× FLAG peptide; about 12 µg cross-linked by BS3 or DSS (0.5 mM, 1 h, room temperature), trypsin, LC-MS/MS, pLink; conditions: both partners purified
T2 construct: Dna2, S. pombe; The Dna2 chain of m29, written alone for the cross-links with Cdc24; source: fission yeast pxd1Δ cells, co-overexpressed with Cdc24-YFH, purified (anti-FLAG beads)
T2 sequence (looked up): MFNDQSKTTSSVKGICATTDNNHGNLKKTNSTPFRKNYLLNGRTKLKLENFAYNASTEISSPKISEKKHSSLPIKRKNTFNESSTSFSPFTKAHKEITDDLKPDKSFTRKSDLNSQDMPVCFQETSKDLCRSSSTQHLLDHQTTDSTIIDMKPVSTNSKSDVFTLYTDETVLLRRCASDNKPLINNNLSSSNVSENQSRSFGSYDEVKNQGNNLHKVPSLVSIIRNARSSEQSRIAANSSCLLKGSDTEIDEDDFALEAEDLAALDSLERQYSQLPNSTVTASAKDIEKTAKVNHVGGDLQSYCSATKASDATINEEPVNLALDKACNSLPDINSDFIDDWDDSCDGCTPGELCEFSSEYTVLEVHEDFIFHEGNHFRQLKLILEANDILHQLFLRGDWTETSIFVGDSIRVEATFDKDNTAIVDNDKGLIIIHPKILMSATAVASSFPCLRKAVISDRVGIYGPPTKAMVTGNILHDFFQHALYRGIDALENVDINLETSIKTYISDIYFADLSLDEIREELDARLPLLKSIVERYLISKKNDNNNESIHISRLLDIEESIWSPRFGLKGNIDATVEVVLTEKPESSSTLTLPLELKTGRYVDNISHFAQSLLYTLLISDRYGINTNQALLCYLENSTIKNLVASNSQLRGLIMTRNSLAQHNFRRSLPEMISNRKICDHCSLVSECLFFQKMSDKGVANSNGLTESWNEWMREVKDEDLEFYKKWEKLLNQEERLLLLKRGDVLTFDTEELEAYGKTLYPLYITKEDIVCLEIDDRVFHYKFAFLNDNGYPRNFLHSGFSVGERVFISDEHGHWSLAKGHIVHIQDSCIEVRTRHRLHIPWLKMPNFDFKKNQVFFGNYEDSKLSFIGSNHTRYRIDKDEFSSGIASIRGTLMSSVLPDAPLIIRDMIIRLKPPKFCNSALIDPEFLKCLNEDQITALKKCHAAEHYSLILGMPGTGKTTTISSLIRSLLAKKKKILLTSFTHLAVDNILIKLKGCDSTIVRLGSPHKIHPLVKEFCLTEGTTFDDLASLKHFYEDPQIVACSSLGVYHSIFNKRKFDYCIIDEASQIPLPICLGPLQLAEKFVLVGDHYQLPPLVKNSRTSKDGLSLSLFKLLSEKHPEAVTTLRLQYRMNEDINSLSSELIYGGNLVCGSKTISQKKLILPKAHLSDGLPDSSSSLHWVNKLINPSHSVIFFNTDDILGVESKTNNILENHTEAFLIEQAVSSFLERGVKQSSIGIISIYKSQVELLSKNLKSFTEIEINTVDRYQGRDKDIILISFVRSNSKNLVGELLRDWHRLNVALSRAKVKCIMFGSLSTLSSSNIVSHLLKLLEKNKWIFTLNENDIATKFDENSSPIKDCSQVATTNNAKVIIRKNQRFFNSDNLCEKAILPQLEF

Row | Binder | binding result [1] | binding result [2]
1 | B1 | binds | 
2 | B2 |  | binds
